Laboratory results taken from the supplement of paper PMC10724198.
± gives the standard deviation of the averaged measurements.

Experiments:
[1] = tested on: Saccharomyces cerevisiae; experiment: protein stability index of tFT-peptide fusion (C-terminal peptide) (PSI (0-1 scale)); higher = more stable (slower turnover); settings: genetic background: wild type; temperature: 30 C
[2] = tested on: Saccharomyces cerevisiae; experiment: as above
Method: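 MPS profiling in S. cerevisiae of the tFT-X12 degron library: putative degron peptides plus stable controls, 12 aa, fused to the C-terminus of a sfGFP-mCherry timer. Cells are FACS-sorted into 8 mCherry/sfGFP bins and deep-sequenced. PSI runs from 0 (unstable) to 1 (stable). Backgrounds are wild type, das1Δ and doa10Δ at 30 °C, and wild type, das1Δ, cdc34-1 and cdc53-1 at 37 °C; 2-3 technical replicates each.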

[3] = genetic background: cdc34-1, temperature: 37 C
[4] = genetic background: cdc53-1, temperature: 37 C
[5] = genetic background: das1 deletion, temperature: 30 C
[6] = genetic background: das1 deletion, temperature: 37 C
[7] = genetic background: doa10 deletion, temperature: 30 C
[8] = genetic background: wild type, temperature: 30 C
[9] = genetic background: wild type, temperature: 37 C
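Note: PSI is a weighted mean of sequencing reads over stability bins, variants kept only with over 10 reads, mCherry proximal and sfGFP distal, peptide attached via GGGS linker.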

Sequence | protein stability index [1] | protein stability index [2, 3] | protein stability index [2, 4] | protein stability index [2, 5] | protein stability index [2, 6] | protein stability index [2, 7] | protein stability index [2, 8] | protein stability index [2, 9]
GVGAISLGFSWL | 0.717 ± 0.013 | 0.734 ± 0.021 | 0.763 ± 0.013 | 0.658 ± 0.019 | 0.7855 ± 0.0022 | 0.652 ± 0.03 | 0.67 ± 0.027 | 0.7491 ± 0.0035
GWLRHGWWRTVG | 0.313 ± 0.0015 | 0.605 ± 0.024 | 0.709 ± 0.0069 | 0.658 ± 0.024 | 0.734 ± 0.011 | 0.152 ± 0.0082 | 0.17 ± 0.018 | 0.4286 ± 0.00089
GWMLVVWCGVFG | 0.275 ± 0.03 | 0.174 ± 0.01 | 0.235 ± 0.0027 | 0.216 ± 0.035 | 0.338 ± 0.011 | 0.192 ± 0.011 | 0.195 ± 0.031 | 0.295 ± 0.0069
GYAFPPPHRVRT | 0.741 ± 0.025 | 0.654 ± 0.073 | 0.7419 ± 0.0073 | 0.669 ± 0.023 | 0.7288 ± 0.0051 | 0.6865 ± 0.0043 | 0.652 ± 0.029 | 0.702 ± 0.016
GYLVFTLRWLRG | 0.461 ± 0.06 | 0.384 ± 0.038 | 0.491 ± 0.035 | 0.343 ± 0.027 | 0.507 ± 0.016 | 0.271 ± 0.026 | 0.305 ± 0.02 | 0.461 ± 0.0085
GYTVYARRLIMC | 0.146 ± 0.015 | 0.215 ± 0.0094 | 0.265 ± 0.008 | 0.236 ± 0.024 | 0.382 ± 0.021 | 0.0746 ± 0.0026 | 0.0799 ± 0.0087 | 0.0893 ± 0.024
GYVVYRRYILIR | 0.141 ± 0.0084 | 0.0341 ± 0.0027 | 0.0546 ± 0.03 | 0.111 ± 0.017 | 0.131 ± 0.026 | 0.219 ± 0.0094 | 0.0783 ± 0.012 | 0.0969 ± 0.011
HCSRMIIIFLFL | 0.371 ± 0.035 | 0.312 ± 0.044 | 0.425 ± 0.042 | 0.276 ± 0.045 | 0.488 ± 0.039 | 0.303 ± 0.061 | 0.282 ± 0.013 | 0.514 ± 0.038
HLYITGIIRKIT | 0.179 ± 0.036 | 0.519 ± 0.027 | 0.619 ± 0.11 | 0.668 ± 0.054 | 0.695 ± 0.016 | 0.0875 ± 0.0033 | 0.165 ± 0.024 | 0.126 ± 0.029
HMVSWTVVRSLM | 0.316 ± 0.011 | 0.652 ± 0.065 | 0.7014 ± 0.004 | 0.603 ± 0.019 | 0.76 ± 0.026 | 0.138 ± 0.029 | 0.144 ± 0.0044 | 0.2582 ± 0.00046
HYTSFAVPPLVY | 0.481 ± 0.024 | 0.524 ± 0.037 | 0.476 ± 0.025 | 0.366 ± 0.018 | 0.5275 ± 0.0048 | 0.3404 ± 0.0026 | 0.376 ± 0.018 | 0.487 ± 0.011
IFFFQFLWFCLS | 0.315 ± 0.038 | 0.296 ± 0.0037 | 0.295 ± 0.0059 | 0.305 ± 0.036 | 0.4186 ± 0.0012 | 0.243 ± 0.0098 | 0.206 ± 0.028 | 0.339 ± 0.015
IFRLVRVVRSSS | 0.386 ± 0.031 | 0.669 ± 0.015 | 0.688 ± 0.037 | 0.6 ± 0.025 | 0.714 ± 0.05 | 0.19 ± 0.036 | 0.236 ± 0.03 | 0.476 ± 0.011
IIAVFRCCLRVY | 0.168 ± 0.076 | 0.052 ± 0.0087 | 0.12 ± 0.022 | 0.131 ± 0.034 | 0.216 ± 0.003 | 0.061 ± 0.02 | 0.0911 ± 0.025 | 0.152 ± 0.012
IIFWMWVIIRVY | 0.139 ± 0.044 | 0.121 ± 0.11 | 0.0686 ± 0.034 | 0.142 ± 0.04 | 0.205 ± 0.0091 | 0.114 ± 0.04 | 0.108 ± 0.039 | 0.116 ± 0.092
IIPAFPFAFLAF | 0.489 ± 0.0067 | 0.527 ± 0.0088 | 0.526 ± 0.018 | 0.415 ± 0.026 | 0.565 ± 0.0086 | 0.432 ± 0.0046 | 0.407 ± 0.017 | 0.541 ± 0.0073
IISPLRLLPLFF | 0.388 ± 0.017 | 0.634 ± 0.018 | 0.73 ± 0.013 | 0.61 ± 0.039 | 0.724 ± 0.0088 | 0.271 ± 0.011 | 0.298 ± 0.03 | 0.515 ± 0.0086
IKERRKVSMKVY | 0.474 ± 0.022 | 0.639 ± 0.023 | 0.688 ± 0.02 | 0.519 ± 0.035 | 0.677 ± 0.018 | 0.321 ± 0.009 | 0.373 ± 0.015 | 0.557 ± 0.032
ILFCVRIGLFWT | 0.219 ± 0.051 | 0.0461 ± 0.0067 | 0.135 ± 0.0014 | 0.137 ± 0.03 | 0.24 ± 0.0035 | 0.146 ± 0.019 | 0.128 ± 0.03 | 0.179 ± 0.014
INGINHKIIKIV | 0.155 ± 0.025 | 0.44 ± 0.025 | 0.721 ± 0.042 | 0.65 ± 0.036 | 0.72 ± 0.013 | 0.0842 ± 0.014 | 0.0896 ± 0.017 | 0.0909 ± 0.0048

Sequence | protein stability index [1] | protein stability index [2, 3] | protein stability index [2, 4] | protein stability index [2, 5] | protein stability index [2, 6] | protein stability index [2, 7] | protein stability index [2, 8] | protein stability index [2, 9]
INILVIWRKNHV | 0.129 ± 0.048 | 0.463 ± 0.00091 | 0.671 ± 0.041 | 0.5213 ± 0.0049 | 0.662 ± 0.014 | 0.0744 ± 0.0074 | 0.0776 ± 0.024 | 0.114 ± 0.021
IPLGLTLVQCLY | 0.53 ± 0.053 | 0.614 ± 0.03 | 0.61 ± 0.029 | 0.491 ± 0.042 | 0.60744 ± 0.00017 | 0.4357 ± 0.00058 | 0.477 ± 0.009 | 0.576 ± 0.0069
IREYSIRIKRLQ | 0.33 ± 0.036 | 0.623 ± 0.062 | 0.722 ± 0.052 | 0.64 ± 0.041 | 0.719 ± 0.022 | 0.138 ± 0.016 | 0.146 ± 0.04 | 0.318 ± 0.058
IRFFLIVFCFLR | 0.284 ± 0.021 | 0.157 ± 0.015 | 0.131 ± 0.017 | 0.251 ± 0.019 | 0.286 ± 0.041 | 0.273 ± 0.0057 | 0.203 ± 0.025 | 0.226 ± 0.022
ISATYSYIPVVG | 0.455 ± 0.038 | 0.502 ± 0.0071 | 0.496 ± 0.011 | 0.346 ± 0.024 | 0.541 ± 0.012 | 0.32388 ± 3.1e-05 | 0.378 ± 0.023 | 0.507 ± 0.0073
ISVRKTFLIVLC | 0.232 ± 0.022 | 0.331 ± 0.031 | 0.351 ± 0.018 | 0.266 ± 0.047 | 0.486 ± 0.01 | 0.152 ± 0.015 | 0.156 ± 0.013 | 0.279 ± 0.025
IVFLPVLLWFSV | 0.407 ± 0.015 | 0.389 ± 0.0069 | 0.411 ± 0.0085 | 0.333 ± 0.032 | 0.474 ± 0.0013 | 0.373 ± 0.019 | 0.297 ± 0.035 | 0.442 ± 0.0084
IVTSFVSPVYIC | 0.12 ± 0.029 | 0.396 ± 0.035 | 0.5353 ± 0.003 | 0.456 ± 0.017 | 0.634 ± 0.055 | 0.0637 ± 0.023 | 0.0746 ± 0.014 | 0.0794 ± 0.021
IWVFSVTGWCGC | 0.452 ± 0.024 | 0.501 ± 0.0055 | 0.589 ± 0.018 | 0.401 ± 0.022 | 0.55 ± 0.008 | 0.3804 ± 0.0007 | 0.417 ± 0.019 | 0.532 ± 0.016
IYITFQIYVSDM | 0.229 ± 0.018 | 0.104 ± 0.018 | 0.172 ± 0.0076 | 0.161 ± 0.019 | 0.267 ± 0.0076 | 0.0912 ± 0.04 | 0.127 ± 0.0083 | 0.244 ± 0.032
IYLLLFFFSFSA | 0.3914 ± 0.0012 | 0.365 ± 0.032 | 0.449 ± 0.053 | 0.376 ± 0.017 | 0.5104 ± 0.0037 | 0.3328 ± 6e-05 | 0.348 ± 0.029 | 0.457 ± 0.024
KKKQAILRTLKI | 0.406 ± 0.0082 | 0.681 ± 0.079 | 0.74 ± 0.026 | 0.663 ± 0.049 | 0.697 ± 0.037 | 0.177 ± 0.045 | 0.197 ± 0.0073 | 0.417 ± 0.013
KKKTKYSKDKLC | 0.343 ± 0.035 | 0.607 ± 0.03 | 0.696 ± 0.025 | 0.662 ± 0.036 | 0.723 ± 0.021 | 0.191 ± 0.028 | 0.217 ± 0.013 | 0.456 ± 0.04
KKTKKTMIIKTT | 0.463 ± 0.0091 | 0.693 ± 0.066 | 0.706 ± 0.027 | 0.6314 ± 0.005 | 0.745 ± 0.0037 | 0.33 ± 0.021 | 0.369 ± 0.04 | 0.6051 ± 0.0008
KLKLWSIIKNNA | 0.385 ± 0.03 | 0.686 ± 0.06 | 0.749 ± 0.021 | 0.658 ± 0.022 | 0.745 ± 0.015 | 0.181 ± 0.008 | 0.25 ± 0.05 | 0.484 ± 0.053
KLMGWFVGVVAR | 0.442 ± 0.015 | 0.494 ± 0.0073 | 0.49 ± 0.019 | 0.355 ± 0.025 | 0.535 ± 0.011 | 0.323 ± 0.0045 | 0.351 ± 0.039 | 0.517 ± 0.033
KLVFLLCLNKVF | 0.243 ± 0.037 | 0.51474 ± 0.00047 | 0.5887 ± 0.0014 | 0.439 ± 0.017 | 0.63 ± 0.0047 | 0.173 ± 0.018 | 0.199 ± 0.013 | 0.29 ± 0.0089
KRKKHKRKLVIC | 0.265 ± 0.043 | 0.611 ± 0.03 | 0.674 ± 0.025 | 0.612 ± 0.012 | 0.732 ± 0.012 | 0.14 ± 0.027 | 0.154 ± 0.045 | 0.148 ± 0.05
KRSPPPATPSSG | 0.24 ± 0.034 | 0.6827 ± 0.0047 | 0.73 ± 0.013 | 0.631 ± 0.025 | 0.76 ± 0.043 | 0.6035 ± 0.0057 | 0.623 ± 0.0081 | 0.704 ± 0.012
